Results from the RNAGym collection of RNA variant scans (doi:10.1093/molbev/msab373).

B1: Azoarcus group I ribozyme (parent)
chain: GUGCCUUGCGCCGGGAAACCACGCAAGGGAUGGUGUCAAAUUCGGCGAAACCUAAGCGCCCGCCCGGGCGUAUGGCAACGCCGAGCCAAGCUUCGGCGCCUGCGCCGAUGAAGGUGUAGAGACUAGACGGCACCCACCUAAGGCAAACGCUAUGGUGAAGGCAUAGUCCAGGGAGUGGCGAAAGUCACACAAACCGG

Variants of: B1
Assay: reverse-splicing fitness (ratio to wild type); higher = more active; in vitro selection; Mg2+ level not given
In short: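 An in vitro group I ribozyme library with randomized positions was T7-transcribed and gel-purified. In triplicate, 10 pmol RNA in EPPS pH 7.5 was reacted with 50 pmoles of a 30-nt RNA substrate for 1 h at 37 °C across several added MgCl2 levels (1–48 mM), then stopped with EDTA. Products were reverse transcribed from a substrate-complementary primer, PCR-amplified and sequenced (HiSeq 4000). Fitness is a variant's read proportion after selection over that before, normalised to wild type.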

Which reverse-splicing fitness does the source give for GUGCCUUGCGCCGGGAAACCACGCAAGGGAUGGUGUCAAAUUCGGCGAAACCUAAGCGCCCGCCCGGGCGUAUGGCAACGCGGAGCCAAGCUUCGGCGCCUGCGCCGAUGGAGGUGUAGCGACUAGACGGCACCCACCUAAGGCGAACGUUAUGGUGAAGGCAUAGUCGAGGGAGGGGCGAAAGUCACACAAACCGG [C82G A111G A120C A145G C150U C169G U176G] here?
Its reverse-splicing fitness is 0.00597.

With GUGCCUUGCGCCGGGAAACCACGCAAGGGAUGGUGUCAAAUUCGGCGAAACCUAAGCGCCCGCCCGGGCGUAUGGCAACGCGGAGCCAAGCUUCGGCGCCUGCGCCGAUGGAGGUGUAGCGACUAGACGGCACCCACCUAAGGCGAACGUUAUGGUGAAGGCAUAGUCGAGGGAGCGGCGAAAGUCACACAAACCGG [C82G A111G A120C A145G C150U C169G U176C] as the variant, how does the reverse-splicing fitness read?
Its reverse-splicing fitness is 0.0192.

With GUGCCUUGCGCCGGGAAACCACGCAAGGGAUGGUGUCAAAUUCGGCGAAACCUAAGCGCCCGCCCGGGCGUAUGGCAACGCGGAGCCAAGCUUCGGCGCCUGCGCCGAUGGAGGUGUAGCGACUAGACGGCACCCACCUAAGGCGAACGUUAUGGUGAAGGCAUAGUCGAGGGAGAGGCGAAAGUCACACAAACCGG [C82G A111G A120C A145G C150U C169G U176A] as the variant, how does the reverse-splicing fitness read?
Its reverse-splicing fitness is 0.0174.

For GUGCCUUGCGCCGGGAAACCACGCAAGGGAUGGUGUCAAAUUCGGCGAAACCUAAGCGCCCGCCCGGGCGUAUGGCAACGCGGAGCCAAGCUUCGGCGCCUGCGCCGAUGGAGGUGUAGCGACUAGACGGCACCCACCUAAGGCGAACGUUAUGGUGAAGGCAUAGUCAAGGGAGAGGCGAAAGUCACACAAACCGG [C82G A111G A120C A145G C150U C169A U176A], which reverse-splicing fitness is on record?
The reverse-splicing fitness was 0.0156.

Which reverse-splicing fitness does the source give for GUGCCUUGCGCCGGGAAACCACGCAAGGGAUGGUGUCAAAUUCGGCGAAACCUAAGCGCCCGCCCGGGCGUAUGGCAACGCGGAGCCAAGCUUCGGCGCCUGCGCCGAUGGAGGUGUAGCGACUAGACGGCACCCACCUAAGGCGAACGUUAUGGUGAAGGCAUAGUCAAGGGAGCGGCGAAAGUCACACAAACCGG [C82G A111G A120C A145G C150U C169A U176C] here?
Its reverse-splicing fitness is 0.0173.

With GUGCCUUGCGCCGGGAAACCACGCAAGGGAUGGUGUCAAAUUCGGCGAAACCUAAGCGCCCGCCCGGGCGUAUGGCAACGCGGAGCCAAGCUUCGGCGCCUGCGCCGAUGGAGGUGUAGCGACUAGACGGCACCCACCUAAGGCGAACGUUAUGGUGAAGGCAUAGUCAAGGGAGGGGCGAAAGUCACACAAACCGG [C82G A111G A120C A145G C150U C169A U176G] as the variant, how does the reverse-splicing fitness read?
Its reverse-splicing fitness is 0.00689.

Which reverse-splicing fitness does the source give for GUGCCUUGCGCCGGGAAACCACGCAAGGGAUGGUGUCAAAUUCGGCGAAACCUAAGCGCCCGCCCGGGCGUAUGGCAACGCGGAGCCAAGCUUCGGCGCCUGCGCCGAUGGAGGUGUAGCGACUAGACGGCACCCACCUAAGGCGAACGUUAUGGUGAAGGCAUAGUCUAGGGAGUGGCGAAAGUCACACAAACCGG [C82G A111G A120C A145G C150U C169U] here?
Its reverse-splicing fitness is 0.016.

With GUGCCUUGCGCCGGGAAACCACGCAAGGGAUGGUGUCAAAUUCGGCGAAACCUAAGCGCCCGCCCGGGCGUAUGGCAACGCGGAGCCAAGCUUCGGCGCCUGCGCCGAUGGAGGUGUAGCGACUAGACGGCACCCACCUAAGGCGAACGUUAUGGUGAAGGCAUAGUCAAGGGAGUGGCGAAAGUCACACAAACCGG [C82G A111G A120C A145G C150U C169A] as the variant, how does the reverse-splicing fitness read?
The reverse-splicing fitness was 0.0104.

Which reverse-splicing fitness does the source give for GUGCCUUGCGCCGGGAAACCACGCAAGGGAUGGUGUCAAAUUCGGCGAAACCUAAGCGCCCGCCCGGGCGUAUGGCAACGCGGAGCCAAGCUUCGGCGCCUGCGCCGAUGGAGGUGUAGCGACUAGACGGCACCCACCUAAGGCGAACGUUAUGGUGAAGGCAUAGUCGAGGGAGUGGCGAAAGUCACACAAACCGG [C82G A111G A120C A145G C150U C169G] here?
The reverse-splicing fitness was 0.00893.

Which reverse-splicing fitness does the source give for GUGCCUUGCGCCGGGAAACCACGCAAGGGAUGGUGUCAAAUUCGGCGAAACCUAAGCGCCCGCCCGGGCGUAUGGCAACGCGGAGCCAAGCUUCGGCGCCUGCGCCGAUGGAGGUGUAGCGACUAGACGGCACCCACCUAAGGCGAACGUUAUGGUGAAGGCAUAGUCCAGGGAGCGGCGAAAGUCACACAAACCGG [C82G A111G A120C A145G C150U U176C] here?
The reverse-splicing fitness was 0.0344.

With GUGCCUUGCGCCGGGAAACCACGCAAGGGAUGGUGUCAAAUUCGGCGAAACCUAAGCGCCCGCCCGGGCGUAUGGCAACGCGGAGCCAAGCUUCGGCGCCUGCGCCGAUGGAGGUGUAGCGACUAGACGGCACCCACCUAAGGCGAACGUUAUGGUGAAGGCAUAGUCCAGGGAGAGGCGAAAGUCACACAAACCGG [C82G A111G A120C A145G C150U U176A] as the variant, how does the reverse-splicing fitness read?
The reverse-splicing fitness was 0.0189.

Which reverse-splicing fitness does the source give for GUGCCUUGCGCCGGGAAACCACGCAAGGGAUGGUGUCAAAUUCGGCGAAACCUAAGCGCCCGCCCGGGCGUAUGGCAACGCGGAGCCAAGCUUCGGCGCCUGCGCCGAUGGAGGUGUAGCGACUAGACGGCACCCACCUAAGGCGAACGUUAUGGUGAAGGCAUAGUCCAGGGAGGGGCGAAAGUCACACAAACCGG [C82G A111G A120C A145G C150U U176G] here?
The reverse-splicing fitness was 0.0117.

Which reverse-splicing fitness does the source give for GUGCCUUGCGCCGGGAAACCACGCAAGGGAUGGUGUCAAAUUCGGCGAAACCUAAGCGCCCGCCCGGGCGUAUGGCAACGCGGAGCCAAGCUUCGGCGCCUGCGCCGAUGGAGGUGUAGCGACUAGACGGCACCCACCUAAGGCGAACGUUAUGGUGAAGGCAUAGUCUAGGGAGGGGCGAAAGUCACACAAACCGG [C82G A111G A120C A145G C150U C169U U176G] here?
Its reverse-splicing fitness is 0.00664.

Which reverse-splicing fitness does the source give for GUGCCUUGCGCCGGGAAACCACGCAAGGGAUGGUGUCAAAUUCGGCGAAACCUAAGCGCCCGCCCGGGCGUAUGGCAACGCGGAGCCAAGCUUCGGCGCCUGCGCCGAUGGAGGUGUAGCGACUAGACGGCACCCACCUAAGGCGAACGUUAUGGUGAAGGCAUAGUCUAGGGAGAGGCGAAAGUCACACAAACCGG [C82G A111G A120C A145G C150U C169U U176A] here?
Its reverse-splicing fitness is 0.0133.

With GUGCCUUGCGCCGGGAAACCACGCAAGGGAUGGUGUCAAAUUCGGCGAAACCUAAGCGCCCGCCCGGGCGUAUGGCAACGCGGAGCCAAGCUUCGGCGCCUGCGCCGAUGGAGGUGUAGCGACUAGACGGCACCCACCUAAGGCGAACGUUAUGGUGAAGGCAUAGUCUAGGGAGCGGCGAAAGUCACACAAACCGG [C82G A111G A120C A145G C150U C169U U176C] as the variant, how does the reverse-splicing fitness read?
The reverse-splicing fitness was 0.0145.
